The stoichiometry N is the number of molecules, sites or subunits per partner or assembly.

These results are taken from article PMC3384303 (Nucleic Acids Research, 2012).

The data set concerns the molecule itself. Nature of the data set: crystal structure.

B1: SsbB (natural protein, Bacillus subtilis, UniProt C0SPB6 1-113, looked up)
chain: MFNQVMLVGRLTKDPDLRYTSAGAAVAHVTLAVNRSFKNASGEIEADYVNCTLWRKTAENTALYCQKGSLVGVSGRIQTRSYENEEGVNVYVTEVLADTVRFMDPKPREKAAD
For B1, the “stoichiometry N” value came out at 4.
